In patent publication US20230174628A1:

Molecular target: RBD of the recombinantly expressed S protein (SARS-CoV-2) (UniProt P0DTC2)
Experiment: ELISA, plate coated with RBD at 0.01 µg/ml, HRP goat anti-human IgG Fc

Irrelevant antibody
OD450 reading: 0.006 OD450
